For two molecules, IC50 (µg/mL), pseudovirus neutralization, IC50 (µg/mL), neutralization of pseudovirus and Fold IC50 increase relative to wild-type results are on record in patent US20240132578A1.

Common to all, as to assay: cell-based or functional assay
Assay [1] deals with HIV-1 Env of isolate 92BR020 (subtype B) (HIV-1).
In assay [2] the target is HIV-1 Env of isolate MGRM-G-001 (subtype G), on pseudovirus (HIV-1).
Assay [3] addresses HIV-1 Env of isolate MGRM-G-011 (subtype G), on pseudovirus (HIV-1).
In assay [4] the target is HIV-1 JR-CSF Env D474A (HIV-1 JR-CSF) (UniProt P20871).
In assay [5] the target is HIV-1 Env of isolate MGRM-G-004 (subtype G), on pseudovirus (HIV-1).
The target of assay [6] is HIV-1 Env of isolate MGRM-G-028 (subtype G), on pseudovirus (HIV-1).
The target in assay [7] is HIV-1 Env of isolate MGRM-G-016 (subtype G), on pseudovirus (HIV-1).
Assay [8] concerns the target HIV-1 Env of isolate 93TH305 (subtype B) (HIV-1).
The target of assay [9] is HIV-1 Env of isolate APV 13 (subtype B) (HIV-1).
For assay [10], the target named is HIV-1 Env of isolate APV 6 (subtype B) (HIV-1).
Assay [11] concerns the target HIV-1 Env of isolate MGRM-G-027 (subtype G), on pseudovirus (HIV-1).
For assay [12], the target named is HIV-1 Env of isolate MGRM-G-014 (subtype G), on pseudovirus (HIV-1).
Assay [13] deals with HIV-1 Env of isolate MGRM-G-025 (subtype G), on pseudovirus (HIV-1).
Assay [14] concerns the target HIV-1 Env of isolate APV_17 (subtype B) (HIV-1).
In assay [15] the target is HIV-1 Env of isolate MGRM-G-019 (subtype G), on pseudovirus (HIV-1).
Assay [16] has as its target HIV-1 Env of isolate MGRM-G-024 (subtype G), on pseudovirus (HIV-1).
Assay [17] deals with HIV-1 Env of isolate MGRM-G-017 (subtype G), on pseudovirus (HIV-1).
In assay [18] the target is HIV-1 Env of isolate MGRM-G-009 (subtype G), on pseudovirus (HIV-1).
The target of assay [19] is HIV-1 Env of isolate 6535.3 (subtype B) (HIV-1).
For assay [20], the target named is HIV-1 Env of isolate MGRM-G-015 (subtype G), on pseudovirus (HIV-1).
Assay [21] addresses HIV-1 Env of isolate MGRM-G-006 (subtype G), on pseudovirus (HIV-1).
Assay [22] addresses aMLV envelope, on pseudovirus (negative control).
The target of assay [23] is HIV-1 Env of isolate MGRM-G-013 (subtype G), on pseudovirus (HIV-1).
For assay [24], the target named is HIV-1 JR-CSF Env G471A (HIV-1 JR-CSF) (UniProt P20871).

B1: PGT-130 (antibody, V domains shown)
VH: QVQLQESGPGLVKPAETLSLTCSVSGESINTGHYYWGWVRQVPGKGLEWIGHIHYTTAVLHNPSLKSRLTIKIYTLRNQITLRLSNVTAADTAVYHCVRSGGDILYYYEWQKPHWFSPWGPGIHVTVSS
VL: QSALTQPPSASGSLGQSVTISCNGTSSDIGGWNFVSWYQQFPGRAPRLIIFEVNKRPSGVPGRFSGSKSGNSASLTVSGLQSDDEGQYFCSSLFGRWDVVFGGGTKLTVL
In the case of B1, the IC50 (µg/mL), pseudovirus neutralization in assay [1] is 1.4 µg/mL; in assay [8] it was 0.021 µg/mL; in assay [9] it was 0.052 µg/mL; in assay [10], more than 50 µg/mL; in [14], 10.7 µg/mL; in assay [19], 0.031 µg/mL. The IC50 (µg/mL), neutralization of pseudovirus was 0.0198 µg/mL in [2]; more than 50 µg/mL in assay [3]; more than 50 µg/mL in [5]; 0.074 µg/mL in assay [6]; more than 50 µg/mL in [7]; 4.14 µg/mL in assay [11]. Besides, the IC50 (µg/mL), neutralization of pseudovirus was 2.23 µg/mL in assay [12]; 8.45 µg/mL in assay [13]; 27.9 µg/mL in [15]; 5.84 µg/mL in assay [16]; more than 50 µg/mL in assay [17]; more than 50 µg/mL in [18]. Besides, the IC50 (µg/mL), neutralization of pseudovirus in assay [20], in assay [21], in assay [22] and in assay [23] was more than 50 µg/mL each time. The molecule also showed a Fold IC50 increase relative to wild-type in assay [4] of 2 fold.

B2: PGT-135 (antibody, V domains shown)
VH: QLQMQESGPGLVKPSETLSLSCTVSGDSIRGGEWGDKDYHWGWVRHSAGKGLEWIGSIHWRGTTHYKESLRRRVSMSIDTSRNWFSLRLASVTAADTAVYFCARHRHHDVFMLVPIAGWFDVWGPGVQVTVSS
VL: EIVMTQSPDTLSVSPGETVTLSCRASQNINKNLAWYQYKPGQSPRLVIFETYSKIAAFPARFVASGSGTEFTLTINNMQSEDVAVYYCQQYEEWPRTFGQGTKVDIK
On to B2, for which the IC50 (µg/mL), pseudovirus neutralization in assay [1] was 0.073 µg/mL; in assay [8], more than 50 µg/mL; in assay [9], 0.716 µg/mL; in assay [10] it was more than 50 µg/mL; in assay [14], more than 50 µg/mL; in assay [19], more than 50 µg/mL. Moreover, the IC50 (µg/mL), neutralization of pseudovirus in assay [2] is 0.393 µg/mL; in [3], more than 50 µg/mL; in assay [5], more than 50 µg/mL; in [6], more than 50 µg/mL; in [7] it was more than 50 µg/mL; in assay [11] it was 0.062 µg/mL. Moreover, the IC50 (µg/mL), neutralization of pseudovirus was more than 50 µg/mL in assay [12]; 0.592 µg/mL in assay [13]; 0.145 µg/mL in [15]; 0.062 µg/mL in [16]; 0.137 µg/mL in [17]; more than 50 µg/mL in [18]. Further, the IC50 (µg/mL), neutralization of pseudovirus in assay [20], in assay [21], in assay [22] and in assay [23] was more than 50 µg/mL in each case. For the same molecule, the Fold IC50 increase relative to wild-type in assay [24] came to 3 fold.
